From patent US20130273053

Experiments:
ST-pro-factor D-His = ST-pro-factor D-His (UniProt P00746)
purified plasma factor B = purified plasma factor B (UniProt P00751)
Sequence of purified plasma factor B (P00751 26-764): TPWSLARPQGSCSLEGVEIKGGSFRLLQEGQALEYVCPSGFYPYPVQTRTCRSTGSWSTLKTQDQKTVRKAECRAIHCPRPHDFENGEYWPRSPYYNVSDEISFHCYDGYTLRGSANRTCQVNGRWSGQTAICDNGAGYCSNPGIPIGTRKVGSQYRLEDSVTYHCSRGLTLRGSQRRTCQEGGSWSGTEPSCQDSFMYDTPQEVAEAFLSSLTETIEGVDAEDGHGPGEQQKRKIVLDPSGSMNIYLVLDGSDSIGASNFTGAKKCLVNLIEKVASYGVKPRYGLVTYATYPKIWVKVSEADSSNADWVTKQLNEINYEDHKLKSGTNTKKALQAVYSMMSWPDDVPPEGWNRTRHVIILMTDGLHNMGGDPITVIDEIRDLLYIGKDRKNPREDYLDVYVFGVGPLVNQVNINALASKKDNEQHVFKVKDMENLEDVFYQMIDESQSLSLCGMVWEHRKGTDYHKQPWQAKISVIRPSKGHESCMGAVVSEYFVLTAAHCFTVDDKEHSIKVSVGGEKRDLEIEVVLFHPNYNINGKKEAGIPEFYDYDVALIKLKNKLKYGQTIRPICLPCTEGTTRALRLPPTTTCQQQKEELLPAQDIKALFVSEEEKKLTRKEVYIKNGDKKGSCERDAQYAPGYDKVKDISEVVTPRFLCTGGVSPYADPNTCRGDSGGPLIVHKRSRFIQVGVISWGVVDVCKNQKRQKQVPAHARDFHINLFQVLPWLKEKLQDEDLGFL

Sequence of full length recombinant human MASP-3 (active) (chain): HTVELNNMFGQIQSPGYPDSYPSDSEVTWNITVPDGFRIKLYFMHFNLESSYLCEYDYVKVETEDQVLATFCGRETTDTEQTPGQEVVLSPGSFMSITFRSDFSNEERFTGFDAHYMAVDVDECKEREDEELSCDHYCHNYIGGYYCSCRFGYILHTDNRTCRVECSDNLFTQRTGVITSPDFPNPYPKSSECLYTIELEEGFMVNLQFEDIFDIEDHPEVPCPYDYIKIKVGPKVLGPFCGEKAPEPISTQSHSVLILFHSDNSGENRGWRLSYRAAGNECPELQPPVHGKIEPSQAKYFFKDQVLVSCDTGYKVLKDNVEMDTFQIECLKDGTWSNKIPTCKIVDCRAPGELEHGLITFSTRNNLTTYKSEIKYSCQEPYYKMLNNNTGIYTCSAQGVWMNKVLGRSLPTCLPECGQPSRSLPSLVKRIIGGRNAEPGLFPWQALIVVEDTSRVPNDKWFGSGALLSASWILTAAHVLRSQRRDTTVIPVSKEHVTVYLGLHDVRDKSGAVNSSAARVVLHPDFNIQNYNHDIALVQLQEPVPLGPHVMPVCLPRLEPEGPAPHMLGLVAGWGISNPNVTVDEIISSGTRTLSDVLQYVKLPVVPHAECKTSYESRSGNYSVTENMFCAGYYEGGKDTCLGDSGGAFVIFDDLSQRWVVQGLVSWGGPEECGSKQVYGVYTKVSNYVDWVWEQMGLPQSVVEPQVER
Sequence of ST-pro-factor D-His (P00746 21-253): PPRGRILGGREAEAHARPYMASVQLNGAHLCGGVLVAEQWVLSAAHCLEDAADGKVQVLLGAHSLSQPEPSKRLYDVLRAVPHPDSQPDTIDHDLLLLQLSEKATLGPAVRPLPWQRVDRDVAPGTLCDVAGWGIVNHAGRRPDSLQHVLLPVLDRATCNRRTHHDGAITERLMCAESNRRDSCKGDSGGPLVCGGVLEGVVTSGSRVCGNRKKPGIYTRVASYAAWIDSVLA

With “full length recombinant human MASP-3 (active)” the “cleavage of pro-factor D substrate, Western blot” value (ST-pro-factor D-His) was “only full length MASP-3 (lane 2) and the MASP-1 CCP1-CCP2-SP) fragment (lane 5) cleaved ST-pro-factor D-His6”, the “cleavage of pro-factor D to factor D, Western blot, no mAb” value (ST-pro-factor D-His) was “MASP-3 cleaves approximately 50% of pro-factor D into factor D” and the “factor B cleavage, Coomassie-stained SDS-PAGE, with C3(H2O)” value (purified plasma factor B) was “either MASP-3 or pro-factor D are able to mediate factor B cleavage, as long as C3 is present”.
